Measured values from US20060252692A1, “Inhibitors for use in hemostasis” (ZymoGenetics, Inc., priority 2002, published 2006).

Key:
[1] = system: serotonin-contracted rat aortic sections; assay: Relaxation of serotonin-induced rat aortic ring contractions; parameters: species or system Sprague-Dawley rats
Method: Male, Sprague-Dawley rats, approximately 3 months of age, were lightly anesthetized with CO2 and then decapitated. The thoracic aorta was then rapidly removed and placed in a modified Kreb's-Henseleit buffer (NaCl, 118.2 mM; KCl, 4.6 mM; CaCl2, 2.5 mM; MgSO4, 1.2 mM; NaHCO3, 24.8 mM; KH2PO4, 1.2 mM; and glucose, 10.0 mM). From each rat, four 2-3 mm aortic ring sections were cut after discarding the rough end of the aorta. In some experiments the endothelium was denuded, prior to cutting ring sections, by rubbing the lumen of the aorta along a 21 gauge needle. Denudation of the endothelium was verified by the addition of the acetylcholine analogue, carbachol, prior to determining zsig37 concentration-dependent responses.
The rings were fixed and connected to force displacement transducers in oxygenated (95% O2, 5% CO2), jacketed, glass organ baths kept at 30° C. in modified Kreb's-Henseleit buffer, pH 7.4. Resting tension was set at 1 gm, and continually re-adjusted to 1 gm over a one-hour incubation period. Fresh oxygenated modified Kreb's-Henseleit buffer was added to the baths every fifteen minutes during the resting incubation period. At the end of the one-hour incubation, the ring sections were contracted by the addition of 10 μM serotonin. After maximum contraction had been reached, approximately 15-20 minutes after the addition of the serotonin, cumulative concentration response curves for zsig37 were constructed. Zsig37 was added to 5 ml baths in volumes from 5 up to 150 μls, for final concentrations ranging from 1 ng/ml up to 40 μg/ml. Viability of the ring sections was verified at the end of the concentration response by the addition of forskolin (2.5 μM or 25 μM) or nitroglycerin (22 μM).

collagen type VI = target: T1, collagen type VI (Homo sapiens, UniProt P12109+P12110+P12111); assay: Quantitative ELISA binding to collagen type VI; conditions: Zsig37-FITC 0.4 to 4 μg/ml, 10 μg collagen type VI
T1 construct: purchased Chemicon International; Temecula, Calif
T1 sequence (P12109 20-1028): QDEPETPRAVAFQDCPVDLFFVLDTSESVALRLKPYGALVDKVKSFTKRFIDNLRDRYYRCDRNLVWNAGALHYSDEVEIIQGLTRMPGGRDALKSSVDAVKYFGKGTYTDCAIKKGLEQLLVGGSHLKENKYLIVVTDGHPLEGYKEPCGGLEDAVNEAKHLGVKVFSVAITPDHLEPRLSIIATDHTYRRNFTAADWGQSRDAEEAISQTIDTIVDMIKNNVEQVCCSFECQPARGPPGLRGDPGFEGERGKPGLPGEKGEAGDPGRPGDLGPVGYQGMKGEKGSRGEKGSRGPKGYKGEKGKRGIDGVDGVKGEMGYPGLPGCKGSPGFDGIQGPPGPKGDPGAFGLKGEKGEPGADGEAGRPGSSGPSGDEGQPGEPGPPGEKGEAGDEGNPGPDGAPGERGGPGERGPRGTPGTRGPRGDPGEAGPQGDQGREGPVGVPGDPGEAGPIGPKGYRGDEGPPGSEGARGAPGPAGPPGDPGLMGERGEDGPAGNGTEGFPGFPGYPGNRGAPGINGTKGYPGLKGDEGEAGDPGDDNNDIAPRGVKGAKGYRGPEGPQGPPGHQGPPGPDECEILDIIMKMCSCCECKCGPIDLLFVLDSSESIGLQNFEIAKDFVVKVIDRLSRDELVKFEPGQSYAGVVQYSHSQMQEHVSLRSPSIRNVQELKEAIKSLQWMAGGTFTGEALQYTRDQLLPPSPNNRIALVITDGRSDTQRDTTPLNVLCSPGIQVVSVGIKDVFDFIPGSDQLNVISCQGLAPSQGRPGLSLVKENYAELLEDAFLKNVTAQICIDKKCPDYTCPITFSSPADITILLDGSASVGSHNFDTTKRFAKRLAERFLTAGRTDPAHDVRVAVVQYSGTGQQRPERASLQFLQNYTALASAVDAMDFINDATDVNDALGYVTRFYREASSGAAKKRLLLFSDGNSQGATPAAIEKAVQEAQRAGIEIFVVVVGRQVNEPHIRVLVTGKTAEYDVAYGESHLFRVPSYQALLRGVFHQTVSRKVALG
T1 sequence (P12110 21-1019): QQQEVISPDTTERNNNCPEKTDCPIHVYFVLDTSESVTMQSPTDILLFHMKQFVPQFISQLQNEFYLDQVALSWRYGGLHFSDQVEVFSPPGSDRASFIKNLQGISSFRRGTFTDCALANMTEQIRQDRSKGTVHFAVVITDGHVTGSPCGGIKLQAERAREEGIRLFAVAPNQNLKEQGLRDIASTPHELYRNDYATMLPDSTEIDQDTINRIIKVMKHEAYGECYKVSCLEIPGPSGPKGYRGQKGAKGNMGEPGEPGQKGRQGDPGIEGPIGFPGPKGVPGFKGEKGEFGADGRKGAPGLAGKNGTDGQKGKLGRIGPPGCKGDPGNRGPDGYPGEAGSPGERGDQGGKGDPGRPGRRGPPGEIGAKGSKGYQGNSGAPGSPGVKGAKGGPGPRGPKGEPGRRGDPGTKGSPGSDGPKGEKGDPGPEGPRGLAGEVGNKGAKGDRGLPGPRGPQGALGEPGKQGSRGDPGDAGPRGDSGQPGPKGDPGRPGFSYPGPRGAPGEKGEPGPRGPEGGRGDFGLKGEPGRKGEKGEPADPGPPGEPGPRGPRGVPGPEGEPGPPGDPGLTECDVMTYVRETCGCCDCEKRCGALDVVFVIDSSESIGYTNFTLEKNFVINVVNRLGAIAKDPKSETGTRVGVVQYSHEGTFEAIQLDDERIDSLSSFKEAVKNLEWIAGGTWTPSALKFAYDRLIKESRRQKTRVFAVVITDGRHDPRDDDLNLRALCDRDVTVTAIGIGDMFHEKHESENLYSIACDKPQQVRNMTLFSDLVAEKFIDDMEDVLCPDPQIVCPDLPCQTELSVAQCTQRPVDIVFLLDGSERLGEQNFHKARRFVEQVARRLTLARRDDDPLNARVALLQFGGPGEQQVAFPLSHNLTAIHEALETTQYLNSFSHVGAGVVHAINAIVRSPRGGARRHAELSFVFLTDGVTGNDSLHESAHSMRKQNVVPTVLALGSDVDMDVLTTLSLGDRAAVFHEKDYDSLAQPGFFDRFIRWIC
T1 sequence (P12111 26-3177): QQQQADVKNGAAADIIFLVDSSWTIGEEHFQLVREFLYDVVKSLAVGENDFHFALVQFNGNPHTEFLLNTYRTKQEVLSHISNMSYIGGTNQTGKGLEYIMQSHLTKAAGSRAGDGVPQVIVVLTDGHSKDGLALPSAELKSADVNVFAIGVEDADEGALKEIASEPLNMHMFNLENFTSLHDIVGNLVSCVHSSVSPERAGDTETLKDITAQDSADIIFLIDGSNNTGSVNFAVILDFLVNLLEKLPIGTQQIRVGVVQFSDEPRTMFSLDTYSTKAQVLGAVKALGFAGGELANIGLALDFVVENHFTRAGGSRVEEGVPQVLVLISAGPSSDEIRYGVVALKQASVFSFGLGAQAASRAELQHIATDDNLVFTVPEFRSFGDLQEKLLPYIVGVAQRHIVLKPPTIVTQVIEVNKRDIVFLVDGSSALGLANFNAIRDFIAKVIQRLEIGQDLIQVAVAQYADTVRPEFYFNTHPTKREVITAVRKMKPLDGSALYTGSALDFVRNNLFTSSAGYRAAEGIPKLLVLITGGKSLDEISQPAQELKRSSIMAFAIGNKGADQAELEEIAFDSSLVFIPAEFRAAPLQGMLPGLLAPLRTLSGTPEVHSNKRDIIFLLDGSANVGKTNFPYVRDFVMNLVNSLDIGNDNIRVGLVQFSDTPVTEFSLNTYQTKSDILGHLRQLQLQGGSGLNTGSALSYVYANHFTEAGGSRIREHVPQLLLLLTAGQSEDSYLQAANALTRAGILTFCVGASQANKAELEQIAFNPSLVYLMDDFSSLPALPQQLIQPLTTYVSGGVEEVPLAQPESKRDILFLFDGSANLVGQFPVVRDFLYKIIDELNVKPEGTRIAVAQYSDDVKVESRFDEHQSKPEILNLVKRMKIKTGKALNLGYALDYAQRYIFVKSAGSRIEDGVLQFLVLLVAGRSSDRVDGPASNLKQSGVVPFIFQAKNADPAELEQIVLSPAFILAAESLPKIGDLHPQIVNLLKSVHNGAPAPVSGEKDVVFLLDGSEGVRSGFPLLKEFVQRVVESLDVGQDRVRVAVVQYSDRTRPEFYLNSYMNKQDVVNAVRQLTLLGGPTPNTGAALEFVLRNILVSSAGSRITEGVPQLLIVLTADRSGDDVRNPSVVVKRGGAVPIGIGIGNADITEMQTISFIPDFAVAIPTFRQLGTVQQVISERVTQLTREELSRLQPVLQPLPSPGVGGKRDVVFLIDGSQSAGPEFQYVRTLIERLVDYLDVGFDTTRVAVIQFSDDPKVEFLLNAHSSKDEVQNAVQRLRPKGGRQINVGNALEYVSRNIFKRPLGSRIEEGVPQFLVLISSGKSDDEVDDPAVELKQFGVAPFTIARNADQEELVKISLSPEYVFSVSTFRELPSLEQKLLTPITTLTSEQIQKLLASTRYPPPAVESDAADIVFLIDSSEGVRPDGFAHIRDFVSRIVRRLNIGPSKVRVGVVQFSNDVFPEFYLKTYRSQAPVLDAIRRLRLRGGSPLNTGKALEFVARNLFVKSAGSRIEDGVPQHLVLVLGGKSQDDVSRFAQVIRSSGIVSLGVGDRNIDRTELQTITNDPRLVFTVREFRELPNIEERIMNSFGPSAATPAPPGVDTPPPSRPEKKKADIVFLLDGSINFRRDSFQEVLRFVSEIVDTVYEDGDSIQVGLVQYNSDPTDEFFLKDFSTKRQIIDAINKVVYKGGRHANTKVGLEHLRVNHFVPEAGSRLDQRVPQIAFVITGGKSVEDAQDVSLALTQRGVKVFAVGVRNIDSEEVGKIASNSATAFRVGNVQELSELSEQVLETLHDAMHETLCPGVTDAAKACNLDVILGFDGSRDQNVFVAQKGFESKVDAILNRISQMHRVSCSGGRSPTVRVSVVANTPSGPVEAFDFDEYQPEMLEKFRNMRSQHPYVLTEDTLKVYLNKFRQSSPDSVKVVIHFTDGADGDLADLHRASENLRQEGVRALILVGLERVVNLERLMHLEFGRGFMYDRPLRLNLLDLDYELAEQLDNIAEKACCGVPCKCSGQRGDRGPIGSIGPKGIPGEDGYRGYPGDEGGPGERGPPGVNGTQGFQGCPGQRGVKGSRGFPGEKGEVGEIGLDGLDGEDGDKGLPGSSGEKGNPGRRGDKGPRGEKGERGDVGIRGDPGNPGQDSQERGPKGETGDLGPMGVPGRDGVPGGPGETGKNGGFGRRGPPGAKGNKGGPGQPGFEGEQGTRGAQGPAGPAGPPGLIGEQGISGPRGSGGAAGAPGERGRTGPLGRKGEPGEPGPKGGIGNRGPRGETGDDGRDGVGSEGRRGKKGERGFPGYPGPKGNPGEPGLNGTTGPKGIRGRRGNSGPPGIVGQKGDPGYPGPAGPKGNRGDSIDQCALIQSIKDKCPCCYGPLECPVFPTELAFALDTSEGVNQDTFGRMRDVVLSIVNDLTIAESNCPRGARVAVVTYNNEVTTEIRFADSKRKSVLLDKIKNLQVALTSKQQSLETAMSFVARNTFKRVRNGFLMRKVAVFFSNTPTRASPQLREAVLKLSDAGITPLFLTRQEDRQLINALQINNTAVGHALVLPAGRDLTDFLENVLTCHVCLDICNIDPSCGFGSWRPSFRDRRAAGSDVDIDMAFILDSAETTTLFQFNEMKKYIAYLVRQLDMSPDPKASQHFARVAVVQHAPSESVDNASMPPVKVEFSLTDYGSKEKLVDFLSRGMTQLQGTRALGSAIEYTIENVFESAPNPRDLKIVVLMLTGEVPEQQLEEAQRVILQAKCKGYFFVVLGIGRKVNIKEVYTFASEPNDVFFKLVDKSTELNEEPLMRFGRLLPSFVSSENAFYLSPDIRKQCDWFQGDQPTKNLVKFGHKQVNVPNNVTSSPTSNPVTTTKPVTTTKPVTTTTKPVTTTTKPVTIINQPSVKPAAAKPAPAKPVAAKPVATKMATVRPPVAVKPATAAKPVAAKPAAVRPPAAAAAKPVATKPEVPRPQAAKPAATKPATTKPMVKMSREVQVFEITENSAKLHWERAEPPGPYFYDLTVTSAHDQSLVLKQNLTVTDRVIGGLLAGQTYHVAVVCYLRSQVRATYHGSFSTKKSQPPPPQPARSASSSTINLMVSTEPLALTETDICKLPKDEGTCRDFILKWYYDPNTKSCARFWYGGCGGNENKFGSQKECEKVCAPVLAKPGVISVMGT
Method: An ELISA (Enzyme-linked Immunosorbant Assay) was used to measure binding of zsig37 to complement C1q, and to the following matrix proteins: Bovine Collagen Type I (Becton Dickinson; Lincoln Park, N.J.), laminin, vitronectin, fibronectin, human collagen Types II, III, IV, V, VI (Chemicon International; Temecula, Calif.). BSA V (Sigma Chemical Co.) was used as a negative control. Just prior to use, the proteins were diluted in 2× PBS (Phosphate Buffered Saline, Sigma Chemical Co.) to 100 μg/ml and adjusted to pH 7.2 with 0.1 N NaOH. Each protein sample was plated in quadruplicate (100 μl/well) into a 96 well plate. The plate was allowed to dry overnight in a laminar flow hood and washed three times with 400 μl of 5 mg/ml BSA in 1× PBS and blotted dry. Zsig37 was FITC labeled according to manufacturer's instruction (Pierce; Rockford, Ill.). Into each well was added 100 μl of 1.8 μg/ml zsig37-FITC in 5% BSA, PBS. The plates were incubated for 1.5 hours at room temperature then washed 3 time with 5% BSA, PBS. To each well was then added 100 μl of 1:400 mouse anti-FITC/Biotin (Sigma Chemical Co.). […]
The ELISA assay for binding, described above, was modified to quantitatively evaluate binding. […] The luminescence from the SUPERSIGNAL reagent was read on a Wallac 1420 plate reader (Wallac; Gaithersburg Md.) and the intensity used as a quantitative measure of the zsig37-FITC bound to the ELISA plate.

platelets in whole blood = assay: Whole blood platelet activation (Lumi-Aggregometer); assay type: cell-based, human
Method: Blood was drawn from healthy volunteers into tubes containing sodium citrate, maintained at room temperature, and used within four hours of drawing. Whole blood was analyzed for platelet activation using a Chrono-Log 560A Whole Blood Lumi-Aggregometer (Chrono-Log Corp.; Haverton, Pa.) according to manufacturer's instructions. For each test point, 500 μl of blood were added to a reaction tube containing a stir bar and 500 μl of isotonic saline containing zsig37 at concentrations from 0 to 20 μg/ml. The mixture was incubated for four minutes followed by platelet activation initiated by the addition of 5 μl of 1 mg/ml cross-linked collagen (Chrono-Log Corp.) to the blood/zsig37 mixture. Inhibition of activation by ADP (final concentration 10 μM), and thrombin (final concentration lU/ml) were tested in a similar way.

B1: zsig37: adipocyte complement related protein homolog, polypeptide of SEQ ID NO:2, inhibits collagen-mediated platelet activation and the complement pathway (protein, listed as Homo sapiens)
chain: MGSRGQGLLLAYCLLLAFASGLVLSRVPHVQGEQQEWEGTEELPSPPDHAERAEEQHEKYRPSQDQGLPASRCLRCCDPGTSMYPATAVPQINITILKGEKGDRGDRGLQGKYGKTGSAGARGHTGPKGQKGSMGAPGERCKSHYAAFSVGRKKPMHSNHYYQTVIFDTEFVNLYDHFNMFTGKFYCYVPGLYFFSLNVHTWNQKETYLHIMKNEEEVVILFAQVGDRSIMQSQSLMLELREQDQVWVRLYKGERENAIFSEELDTYITFSGYLVKHATEP
time to plateau of relaxation response after addition [1]: 3 to 5 min | time to relaxation after addition of each concentration [1]: 30 to 60 s | concentration at which relaxation was first observed ([1]; 10 μM serotonin): above 100 ng/ml | vasorelaxation of serotonin-contracted aortic sections ([1]; 10 μM serotonin, with and without an intact endothelium, 1 ng/ml up to 40 μg/ml): concentration-dependent vasorelaxation | binding curve to collagen type VI (collagen type VI): fits a typical hyperbolic binding curve | effect on platelet activation stimulated by ADP (platelets in whole blood; ADP final concentration 10 μM): no effect | inhibition of collagen-mediated platelet activation (platelets in whole blood; cross-linked collagen, zsig37 0 to 20 μg/ml): dose dependent relationship between 5 and 20 μg/ml | effect on platelet activation stimulated by thrombin (platelets in whole blood; thrombin): no effect
